Experimental data: doi:10.1101/2024.08.28.610080

What was measured:
Test in all cases: EMSA
[1] = target: POLγA WT;POLγB (processivity subunit, B2) (human;human, UniProt P54098;Q9UHN1 26-1239;26-485, |)
POLγA WT = POLγA WT (human, UniProt P54098 26-1239)
POLγA Y951N = POLγA Y951N (human, UniProt P54098 26-1239, Y951N)
[2] = target: POLγA Y951N;POLγB (processivity subunit, B2) (human;human, UniProt P54098;Q9UHN1 26-1239;26-485, Y951N|)

Measured: binding result

Sequence of POLγA WT;POLγB (processivity subunit, B2) (P54098 26-1239, chain 1 of 2): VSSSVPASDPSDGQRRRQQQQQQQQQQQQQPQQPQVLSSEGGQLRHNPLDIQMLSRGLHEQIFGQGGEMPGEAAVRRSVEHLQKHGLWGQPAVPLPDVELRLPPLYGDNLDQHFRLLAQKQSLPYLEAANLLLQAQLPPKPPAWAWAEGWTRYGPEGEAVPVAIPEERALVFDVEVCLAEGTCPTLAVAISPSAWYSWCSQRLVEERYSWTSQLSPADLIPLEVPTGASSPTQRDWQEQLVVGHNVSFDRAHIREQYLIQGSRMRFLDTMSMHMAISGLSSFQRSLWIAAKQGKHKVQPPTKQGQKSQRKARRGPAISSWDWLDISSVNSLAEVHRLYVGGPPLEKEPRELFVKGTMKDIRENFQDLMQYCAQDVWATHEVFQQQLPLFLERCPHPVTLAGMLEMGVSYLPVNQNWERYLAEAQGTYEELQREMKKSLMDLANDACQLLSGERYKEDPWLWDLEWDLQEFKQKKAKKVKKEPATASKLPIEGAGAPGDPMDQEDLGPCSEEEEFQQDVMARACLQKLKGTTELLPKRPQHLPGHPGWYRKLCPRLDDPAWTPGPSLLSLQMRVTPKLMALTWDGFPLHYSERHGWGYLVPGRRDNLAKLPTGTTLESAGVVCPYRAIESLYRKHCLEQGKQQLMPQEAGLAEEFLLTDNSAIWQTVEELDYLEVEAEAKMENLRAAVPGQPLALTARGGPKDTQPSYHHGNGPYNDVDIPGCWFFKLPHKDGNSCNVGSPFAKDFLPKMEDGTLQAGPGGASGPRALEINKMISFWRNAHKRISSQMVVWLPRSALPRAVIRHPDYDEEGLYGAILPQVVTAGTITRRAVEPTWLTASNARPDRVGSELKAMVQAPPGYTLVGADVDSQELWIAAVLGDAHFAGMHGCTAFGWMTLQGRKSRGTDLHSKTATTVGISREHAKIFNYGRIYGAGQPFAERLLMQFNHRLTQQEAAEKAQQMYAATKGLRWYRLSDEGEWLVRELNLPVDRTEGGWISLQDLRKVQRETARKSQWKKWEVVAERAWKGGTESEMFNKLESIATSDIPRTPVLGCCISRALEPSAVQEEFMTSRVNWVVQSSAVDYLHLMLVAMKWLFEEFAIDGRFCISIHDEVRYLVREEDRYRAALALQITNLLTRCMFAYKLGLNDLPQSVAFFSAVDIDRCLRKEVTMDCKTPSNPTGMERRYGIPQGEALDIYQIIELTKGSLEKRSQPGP
Sequence of POLγA WT;POLγB (processivity subunit, B2) (Q9UHN1 26-485, chain 2 of 2): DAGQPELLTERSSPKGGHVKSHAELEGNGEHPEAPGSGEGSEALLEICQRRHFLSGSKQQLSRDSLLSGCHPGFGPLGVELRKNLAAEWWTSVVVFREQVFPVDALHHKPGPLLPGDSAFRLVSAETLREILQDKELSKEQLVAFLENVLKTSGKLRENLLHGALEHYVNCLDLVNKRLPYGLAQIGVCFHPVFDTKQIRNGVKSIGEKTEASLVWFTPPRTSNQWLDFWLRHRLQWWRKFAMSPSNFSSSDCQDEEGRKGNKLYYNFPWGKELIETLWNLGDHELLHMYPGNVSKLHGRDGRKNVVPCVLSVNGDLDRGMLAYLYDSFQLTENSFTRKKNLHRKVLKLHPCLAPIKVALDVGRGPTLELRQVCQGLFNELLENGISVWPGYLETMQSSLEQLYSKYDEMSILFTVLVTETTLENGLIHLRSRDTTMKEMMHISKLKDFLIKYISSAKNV
Sequence of POLγA WT (P54098 26-1239): as the sequence (P54098 26-1239, chain 1 of 2) above
Sequence of POLγA Y951N;POLγB (processivity subunit, B2) (P54098 26-1239 Y951N, chain 1 of 2): as the sequence (P54098 26-1239, chain 1 of 2) above, with Y926N counted along it
Sequence of POLγA Y951N;POLγB (processivity subunit, B2) (Q9UHN1 26-485, chain 2 of 2): as the sequence (Q9UHN1 26-485, chain 2 of 2) above
Sequence of POLγA Y951N (P54098 26-1239 Y951N): as the sequence (P54098 26-1239, chain 1 of 2) above, with Y926N counted along it

B1: 25/40 nt TET-ddC primer/template (EMSA) (dsDNA)
DNA 1: GCAGTGAATTTCTGCAGGTCGACTC
DNA 2: GCGGGTTGACCTTTGGAGTCGACCTGCAGAAATTCACTGC
modifications: 3'-ddC on both strands
binds: [1] | POLγA WT | POLγA Y951N | [2]
